PMC3854711, “Handling Uncertainty in Dynamic Models: The Pentose Phosphate Pathway in Trypanosoma brucei” (PLoS Computational Biology, 2013)

How the values were obtained:
[1] = substrate: Nc1ncnc2c1ncn2[C@@H]1O[C@H](COP(=O)(O)OP(=O)(O)O)[C@@H](O)[C@H]1O; test: coupled spectrophotometric assay (HXK/G6PDH, NADP); assay type: biochemical, Trypanosoma brucei; details: ribose 5-phosphate co-substrate (5 mM), 10 mM MgCl2, pH 7, 25°C, reverse direction, ribose production
Excerpt: coupled spectrophotometric assay (HXK/G6PDH, NADP) on T. brucei ribokinase | the enzyme could indeed work in the ribose production direction

[2] = substrate: Nc1ncnc2c1ncn2[C@@H]1O[C@H](COP(=O)(O)OP(=O)(O)OP(=O)(O)O)[C@@H](O)[C@H]1O; test: coupled spectrophotometric assay (PK/LDH, NADH); assay type: biochemical, Trypanosoma brucei; details: ribose co-substrate (5 mM), 10 mM MgCl2, pH 7, 25°C, ribose 5-phosphate production direction
Excerpt: coupled spectrophotometric assay (PK/LDH, NADH) on T. brucei ribokinase | enzyme kinetics of heterologously expressed T. brucei ribokinase were characterized

B1: T. brucei ribokinase (Trypanosoma brucei brucei TREU927) (protein)
chain: MSAAGVKSGNGCIADTPIVVVGACFVDYVAYVDHLPQVGESLRCRSFSKGFGGKGSNQAVCAGRLGASVSMVGAVGTDGDGADYIANFQRNGVQVSNVYRMENTSTGLAMIFVDSTTSHNEIVFSPNATGALTVDYLRKQSDNYNNFFGPKCRYIILQNEIPVETTLDVLKEAHTRGIYTVFNAAPAPSADEVAVVKPFLSYVSLFCVNEVEASMITGIDVKDTQSAILATEEMQKLGAHSVVTTLGGNGYVIGEKGKPPRHLPSITVKAVDSTGAGDCFVGAMVFYLSMGKSLEESCKRANMIAAISVQRPGTQSSYPTLDELPAEVKECKI
notes: N-terminal His-tag from pET28a(+), expressed in E. coli BL21(DE3), Ni chelate purified
- Km [1]: 0.25 mM
- Km [2]: 0.24 mM
